Results as given in article PMC7040040 (2020).
Non-standard residues stand in square brackets, D forms with d. No end group written: not given here. pGlu = O=C1CC[C@@H](C(=O)O)N1

Experiments:
[1] = target: T1, PBD-C06 (final humanized, de-immunized antibody with the complement mutation K322A) (human); assay: SPR
[2] = target: T1, PBD-C06 (final humanized, de-immunized …); assay: SPR; remark: listed apart in the source

T1 sequence (chain, as listed by the source K322A, chain 1 of 2): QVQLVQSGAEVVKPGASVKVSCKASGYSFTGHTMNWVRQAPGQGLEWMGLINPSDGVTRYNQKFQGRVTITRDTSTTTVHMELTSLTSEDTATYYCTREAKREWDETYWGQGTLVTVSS
T1 sequence (chain, as listed by the source K322A, chain 2 of 2): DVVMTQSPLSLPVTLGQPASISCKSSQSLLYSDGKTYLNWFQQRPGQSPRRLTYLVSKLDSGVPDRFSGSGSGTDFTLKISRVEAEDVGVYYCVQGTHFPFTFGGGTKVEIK

| Binder | Kd [1] [nM] | koff [2] [s⁻¹] |
| --- | --- | --- |
| FRHDSGYEVHHQKLV [Aβ(4–18) monomer] | > 50000 | – |
| [pGlu]FRHDSGYEVHHQKLV [pE3-Aβ(3–18) monomer] | 7.86 | 0.00393 |
